This passage reports abundance fitness results from the Human Domainome abundance scans (Beltran et al. 2025).

± gives the uncertainty stated by the source.

Sequences and labels used below:
B1: Transitional endoplasmic reticulum ATPase, residues 26 to 106; numbered along this chain, P55072 (parent)
chain: LIVDEAINEDNSVVSLSQPKMDELQLFRGDTVLLKGKKRREAVCIVLSDDTCSDEKIRMNRVVRNNLRVRLGDVISIQPCP

The variants in this data set derive from B1. Description: abundance fitness (aPCA) (normalised: wild type 0, dead -1); higher = more abundant; growth selection in yeast, the domain comes from the species named. The note with it: Homo sapiens.
Take N65Y: the abundance fitness was -0.14 ± 0.14.
The figure for N65S is 0.025 ± 0.062; for N65W it is -0.157 ± 0.068.
Next, R61G: -0.025 ± 0.061.
The figure for R61P is -0.003 ± 0.15; for R61A it is 0.059 ± 0.067; for R61K it is 0.079 ± 0.095.
With R61C, the abundance fitness stood at 0.005 ± 0.16.
Next, R61D: -0.024 ± 0.14; R61L: -0.006 ± 0.062.
The figure for R61N is -0.091 ± 0.15; for L71T it is 0.083 ± 0.097.
Next, D54W: -0.289 ± 0.07.
For the variant D4H, the abundance fitness is -0.04 ± 0.26.
The figure for D4P is -1.11 ± 0.19; for D4T it is -0.017 ± 0.061; for D4L it is -0.203 ± 0.047.
The figure for S76F is -0.043 ± 0.11.
Regarding S76A, the abundance fitness was -0.036 ± 0.073.
S76P: the abundance fitness was -0.467 ± 0.16.
Regarding P79G, the abundance fitness is -0.083 ± 0.06.
The figure for P79I is -0.181 ± 0.14.
The figure for P79T is -0.11 ± 0.088.
The figure for P79E is -0.087 ± 0.082; for V69M it is -0.032 ± 0.1.
Consider V69R, for which the abundance fitness is -0.665 ± 0.079.
The figure for V69W is -0.987 ± 0.24; for V69K it is -0.514 ± 0.18.
Next, V69F: -0.717 ± 0.15; V69T: -0.12 ± 0.079.
Take L26I: the abundance fitness was -0.078 ± 0.13.
The figure for L26V is -0.027 ± 0.057; for L26T it is -0.462 ± 0.12.
Next, L26W: -0.447 ± 0.054; S15C: -0.006 ± 0.066; R68V: -0.124 ± 0.063.
For R68C, the abundance fitness is -0.114 ± 0.14.
R68K: the abundance fitness came to 0.122 ± 0.12.
The figure for R68E is 0.047 ± 0.084; for R68T it is -0.14 ± 0.09.
The figure for E9P is 0.048 ± 0.079; for E9N it is 0.184 ± 0.24; for K38T it is 0.033 ± 0.11.
Next, K38M: -0.018 ± 0.12; K38N: 0.186 ± 0.28.
Turning to S53K, the abundance fitness was -0.016 ± 0.11.
Next, S53M: -0.09 ± 0.073; G36N: 0.058 ± 0.13; G36V: -0.218 ± 0.059.
As for G36F, the abundance fitness was -0.135 ± 0.092.
The figure for G36Q is -0.688 ± 0.18.
The figure for G36M is -0.309 ± 0.13.
Regarding G36K, the abundance fitness was -0.423 ± 0.15.
G36W: the abundance fitness was -0.618 ± 0.15.
The figure for I75Y is -0.916 ± 0.31; for I75A it is -0.246 ± 0.088.
Next, I75Q: -1.11 ± 0.28.
Next, V43E: 0.063 ± 0.089; V43S: -0.052 ± 0.076.
For the variant V43D, the abundance fitness was -0.093 ± 0.11.
Next, V43C: -0.012 ± 0.1; V43K: -0.006 ± 0.13; V43A: -0.026 ± 0.064.
Regarding V43N, the abundance fitness is -0.176 ± 0.19.
In the case of K20A, the abundance fitness is -0.005 ± 0.062.
The figure for K20N is -0.093 ± 0.1; for K20H it is -0.389 ± 0.12; for K20T it is -0.08 ± 0.071.
Next, K20L: 0.01 ± 0.051; D30L: -0.468 ± 0.07.
Next, D30S: -0.175 ± 0.064.
For the variant L34Q, the abundance fitness was -0.461 ± 0.32.
As for L34N, the abundance fitness is -0.891 ± 0.28.
The figure for L34I is 0.074 ± 0.21.
Next, L34A: -0.292 ± 0.1; L34F: -0.856 ± 0.39; D50Q: -0.277 ± 0.2.
The figure for D50N is -0.105 ± 0.16; for D50V it is -0.12 ± 0.044; for D50A it is -0.023 ± 0.056.
D50Y: the abundance fitness was -0.246 ± 0.11.
Next, Q78N: 0.063 ± 0.48; Q78C: -0.105 ± 0.089; Q78P: -0.256 ± 0.24.
Next, Q78G: -0.069 ± 0.048; Q78R: -0.071 ± 0.057.
The figure for Q78E is -0.004 ± 0.13.
In the case of V63C, the abundance fitness was 0.031 ± 0.09.
For V63I, the abundance fitness worked out at 0.029 ± 0.14.
The figure for V63N is -0.276 ± 0.17.
With V63M, the abundance fitness is -0.095 ± 0.11.
The figure for V63G is -0.253 ± 0.058.
Next, L1G: -0.662 ± 0.21; L1F: 0.15 ± 0.13; P19A: -0.018 ± 0.054.
Next, P19H: -0.003 ± 0.15; D49G: -0.204 ± 0.054; D49Q: -0.307 ± 0.11.
On to D49P, for which the abundance fitness is -0.743 ± 0.21.
The figure for D49K is -0.529 ± 0.41; for I2V it is -0.058 ± 0.068; for I2G it is -0.357 ± 0.066.
The figure for I2M is -0.102 ± 0.075; for I2Q it is -0.164 ± 0.097.
The figure for K37N is -0.143 ± 0.32.
For the variant K37I, the abundance fitness is -0.182 ± 0.15.
The figure for K37M is 0.156 ± 0.31.
As for K37A, the abundance fitness is -0.222 ± 0.12.
The figure for K37D is -0.126 ± 0.17.
The figure for M21L is 0.048 ± 0.074; for M21A it is -0.638 ± 0.071.
Next, M21S: -1.03 ± 0.16; M21I: -0.124 ± 0.11; M21V: -0.759 ± 0.12.
Regarding M21P, the abundance fitness was -0.902 ± 0.25.
The figure for M21E is -0.731 ± 0.31.
Next, E23A: -0.103 ± 0.06; E23K: -0.187 ± 0.11.
Next, E23V: -0.142 ± 0.087.
With E23L, the abundance fitness is -0.148 ± 0.089.
The figure for E23T is -0.041 ± 0.083.
The figure for V14A is -0.341 ± 0.048; for V14W it is -0.816 ± 0.13; for I7A it is -0.019 ± 0.051.
Consider I7V, for which the abundance fitness is -0.07 ± 0.053.
The figure for S48G is 0.001 ± 0.049; for S48R it is -0.015 ± 0.051; for S48E it is 0.04 ± 0.079.
Next, S48H: -0.23 ± 0.12; R28F: -0.401 ± 0.31.
The figure for R28I is -0.061 ± 0.1; for R28H it is 0.226 ± 0.17.
With R28C, the abundance fitness was 0.053 ± 0.15.
The figure for R28N is 0.093 ± 0.14; for R28A it is 0.085 ± 0.06; for C44A it is -0.017 ± 0.062.
Next, C44Y: -0.091 ± 0.13; C44E: -0.559 ± 0.18.
Next, C44G: -0.006 ± 0.051; C44D: -0.707 ± 0.14; C44V: -0.026 ± 0.074.
With P81S, the abundance fitness is -0.106 ± 0.064.
With P81A, the abundance fitness is -0.042 ± 0.044.
N66I: the abundance fitness was -0.151 ± 0.1.
Take N66H: the abundance fitness is -0.314 ± 0.14.
With N66W, the abundance fitness is -0.255 ± 0.092.
The figure for N66C is -0.374 ± 0.27.
The figure for N66P is -0.952 ± 0.2; for N66M it is -0.04 ± 0.14; for T51S it is -0.052 ± 0.054.
The figure for T51Y is -0.277 ± 0.12.
For C80M, the abundance fitness turned out to be 0.055 ± 0.2.
Next, C80N: 0.141 ± 0.089; V62K: 0.003 ± 0.092; V62L: 0.005 ± 0.055.
The figure for N60G is -0.065 ± 0.082; for N60H it is -0.045 ± 0.19; for N60D it is -0.077 ± 0.092.
Next, N60T: -0.019 ± 0.08; N11V: -0.067 ± 0.045.
With N11E, the abundance fitness turned out to be 0.031 ± 0.069.
Consider N11M, for which the abundance fitness was -0.029 ± 0.072.
The figure for N11P is -0.011 ± 0.071; for N11Y it is -0.079 ± 0.12; for A6P it is 0.024 ± 0.087.
The figure for A6Y is -0.404 ± 0.21; for A6N it is -0.004 ± 0.22.
